{
  "source": "paper PMC3045798",
  "origin": "cited, not measured here",
  "molecular_target": "Cys25 (UniProt position 158, GSCGSCWAFSA)",
  "data": [
    {"substance": "Papain (Carica papaya (not stated in the article))", "values": [
      {"measurement": "pKa", "value": "around 2.5 to 3.5"}
    ]}
  ]
}
